Laboratory results as given in patent US12226476B2, “Helper epitope peptide and application thereof” (CHINA PHARMACEUTICAL UNIVERSITY, priority 2018, dated 2025).
Non-standard residues stand in square brackets, D forms with d. Phe(4-NO2) = N[C@@H](Cc1ccc([N+](=O)[O-])cc1)C(=O)O

What was measured:
Assay in all cases: Antibody titer in serum of immunized mice, indirect ELISA
Assay type in all cases: in vivo
IL-2Ra = details: FIG. 9; compared with the IL-2Ra group and the IL-2Ra-PADRE group; mice immunized subcutaneously, 50 μg, Freund's adjuvant
Procedure: (§1) The protocol is as follows: • (1) The helper epitope was connected to individual antigens or antigen epitope with the linking peptide to construct multiple fusion antigens. The sequence of the linking peptide is GPSL (i.e. Gly-Pro-Ser-Leu) (SEQ ID NO:51). • (2) The fusion antigens from (1) were emulsified adequately with complete Freund's adjuvant of the same volume. Then to immunize mice via subcutaneous injection with the emulsion at the dose of 50 μg per mouse. The strains of experimental mice including C57, Fvb and Balb/C. After 7 days and 14 days of first immunization, the fusion antigens from (1) were emulsified adequately with incomplete Freund's adjuvant of the same volume and then to immunize mice via subcutaneous injection with the emulsion at the dose of 50 μg per mouse. • (3) There are two detection methods. One is to obtain the orbital blood of immunized mice on 7, 14, 21 and 28 day respectively, centrifuge the whole blood to get the serum. Then the antibody titer is detected by indirect ELISA. The other one is: one week after the last immunization, the mice are killed to get the spleen. PBMC (peripheral blood mononuclear cells) are isolated, and the CTL-mediated cytotoxicity is detected by LDH (lactate dehydrogenase) kit.
(§2) The first step was to construct the fusion antigen. According to each fusion antigen, C57BL/6 female mice aged 6-8 weeks were randomly divided into three groups with 6 mice in each group. They were PBS group, existing antigen or antigen epitope group, antigen-PADRE or antigen epitope-PADRE group, and vaccine group containing fusion antigen.
(§3) In the second step, using fusion antigen to immunize mice via subcutaneous injection for 3 times […] 50 μg each time. Mixed with Freund's adjuvant of the same volume.
(§4) Method 1: The whole blood was collected every week after immunization and centrifugated at 6000 rpm for 20 min to obtain the serum for a total of 4 weeks. Antibody titers were detected by indirect ELISA as follows: • (1) Coating: the existing antigen or antigen epitope was diluted to 5 μg/mL with coating solution. Then the 100 μL mixed solution was added into each well of enzyme immunoassay test strip, and incubated in 37° C. incubator for 2 h; • (2) use PBST to wash each well 5 times for 5 min each time; • (3) Sealing: 150 μL locking solution was added to each well of the enzyme immunoassay test strip and incubated at 4° C. overnight. • (4) Repeat step (2); • (5) Incubation first antibody: the collected mouse serum was diluted with antibody diluent. Then the 100 μL mixed solution was added into each well, and incubated at 37° C. for 2 h; • (6) Repeat step (2); • (7) Incubating secondary antibodies: HRP-GOAT Anti-mouse IgG was diluted with antibody dilution in the ratio of 1:10000, and 100 μL dilution was added to each well, and incubated at 37° C. for 45 min; • (8) Repeat step (2); • (9) Substrate addition: 100 μL TMB substrate reaction solution was added into each well of enzyme label, and incubated at 37° C. for 15 min in darkness. • (10) Termination reaction: 50 μL 2M H2SO4 was added into each well to terminate the reaction. • (11) Color development: the absorbance value of the sample in each well was detected at 450/630 nm.

PSMA = details: FIG. 11; compared with the PSMA group and the PSMA-PADRE group; mice immunized subcutaneously, 50 μg, Freund's adjuvant
Procedure: as §1, §2, §3, §4

FR-α = details: FIG. 15; compared with the FR-α group and the FR-α-PADRE group; mice immunized subcutaneously, 50 μg, Freund's adjuvant
Procedure: as §1, §2, §3, §4

TOLL-1 = details: FIG. 12; compared with the TOLL-1 group and the TOLL-1-PADRE group; mice immunized subcutaneously, 50 μg, Freund's adjuvant
Procedure: as §1, §2, §3, §4

EPCAM = details: FIG. 16; compared with the EPCAM group and the EPCAM-PADRE group; mice immunized subcutaneously, 50 μg, Freund's adjuvant
Procedure: as §1, §2, §3, §4

[1] = system: VEGFR extracellular domain; details: FIG. 8; compared with the VEGFR extracellular region group and the VEGFR-PADRE group; mice immunized subcutaneously, 50 μg, Freund's adjuvant
Procedure: as §1, §2, §3, §4

B1: IL/2Ra-9pPhe-PADRE: fusion antigen: IL-2Ra linked via GPSL to helper epitope SEQ ID NO: 10 (protein)
chain: ELCDDDPPEIPHATFKAMAYKEGTMLNCECKRGFRRIKSGSLYMLCTGNSSHSSWDNQCQCTSSATRNTTKQVTPQPEEQKERKTTEMQSPMQPVDQASLPGHCREPPPWENEATERIYHFVVGQMVYYQCVQGYRALHRGPAESVCKMTHGKTRWTQPQLICTGEMETSQFPGEEKPQASPEGRPESETSCLVTTTDFQIQTEMAATMETSIFTTEYQGPSLAKFVAAWT[Phe(4-NO2)]KAAA
B1 was tested, and the antibody titers (IL-2Ra) was “increased significantly”.

B2: PSMA-11pPhe-PADRE: fusion antigen: PSMA linked via GPSL to helper epitope SEQ ID NO: 12 (protein)
chain: QGQAQQQAYDRGITIFSPDGRLYQVEYAREAVKRGTASIGVRTPEGVVLAADKRSRSPLMEPTSVEKIHKADDHIGIASAGHVADARQLIDFARRQSQVNRLRYGEPIGIETLTKEVTDHIQQYTQVGGARPFGVALLIGGVENGTPRLYETDPSGTPYEWKAVSIGADRGDHQEHLEENFRDDLTLDEGIELALEAIASTSDEGTAPDGVDVATVSAETERFVELSNDEIESYLEANDLLATEDDEQTEEGPSLAKFVAAWTLK[Phe(4-NO2)]AA
With B2 the antibody titers (PSMA) was “increased significantly”.

B3: FRα-3 ? 8pPhe-PADRE: fusion antigen: FR-α linked via GPSL to helper epitope SEQ ID NO: 16 (protein)
chain: RIAWARTELLNVCMNAKHHKEKPGPEDKLHEQCRPWRKNACCSTNTSQEAHKDVSYLYRFNWNHCGEMAPACKRHFIQDTCLYECSPNLGPWIQQVDQSWRKERVLNVPLCKEDCEQWWEDCRTSYTCKSNWHKGWNWTSGFNKCAVGAACQPFHFYFPTPTVLCNEIWTHSYKVSNYSRGSGRCIQMWFDPAQGNPNEEVARFYAAAMSGPSLAKXVAAWXLKAAA
modifications: pPhe non-natural residue; (217)..(217) Xaa stands for 4-Nitrophenylalanine.; (222)..(222) Xaa stands for 4-Nitrophenylalanine.
B3 was tested, and the antibody titers (FR-α) was “increased significantly”.

B4: TOLL/1-12pPhe-PADRE: fusion antigen: TOLL-1 linked via GPSL to helper epitope SEQ ID NO: 13 (protein)
chain: SEFLVDRSKNGLIHVPKDLSQKTTILNISQNYISELWTSDILSLSKLRILIISHNRIQYLDISVFKFNQELEYLDLSHNKLVKISCHPTVNLKHLDLSFNAFDALPICKEFGNMSQLKFLGLSTTHLEKSSVLPIAHLNISKVLLVLGETYGEKEDPEGLQDFNTESLHIVFPTNKEFHFILDVSVKTVANLELSNIKCVLEDNKCSYFLSILAKLQTNPKLSNLTLNNIETTWNSFIRILQLVWHTTVWYFSISNVKLQGQLDFRDFDYSGTSLKALSIHQVVSDVFGFPQSYIYEIFSNMNIKNFTVSGTRMVHMLCPSKISPFLHLDFSNNLLTDTVFENCGHLTELETLILQMNQLKELSKIAEMTTQMKSLQQLDISQNSVSYDEKKGDCSWTKSLLSLNMSSNILTDTIFRCLPPRIKVLDLHSNKIKSIPKQVVKLEALQELNVAFNSLTDLPGCGSFSSLSVLIIDHNSVSHPSADFFQSCQKMRSIKAGDNPFQCTCELGEFVKNIDQVSSEVLEGWPDSYKCDYPESYRGTLLKDFHMSELSCNITGPSLAKFVAAWTLKA[Phe(4-NO2)]A
B4 was tested, and the antibody titers (TOLL-1) was “increased significantly”.

B5: EPCAM-3 ? 11pPhe-PADRE: fusion antigen: EPCAM linked via GPSL to helper epitope SEQ ID NO: 17 (protein)
chain: QEECVCENYKLAVNCFVNNNRQCQCTSVGAQNTVICSKLAAKCLVMKAEMNGSKLGRRAKPEGALQNNDGLYDPDCDESGLFKAKQCNGTSMCWCVNTAGVRRTDKDTEITCSERVRTYWIIIELKHKAREKPYDSKSLRTALQKEITTRYQLDPKFITSILYENNVITIDLVQNSSQKTQNDVDIADVAYYFEKDVKGESLFHSKKMDLTVNGEQLDLDPGQTLIYYVDEKAPEFSMQGLKGPSLAK[Phe(4-NO2)]VAAWTLK[Phe(4-NO2)]AA
In the case of B5, the antibody titers (EPCAM) is reported as “increased significantly”.

B6: VEGFR-8pPhe-PADRE: fusion antigen: VEGFR extracellular domain linked via GPSL to helper epitope SEQ ID NO: 9 (protein)
chain: ASVGLPSVSLDLPRLSIQKDILTIKANTTLQITCRGQRDLDWLWPNNQSGSEQRVEVTECSDGLFCKTLTIPKVIGNDTGAYKCFYRETDLASVIYVYVQDYRSPFIASVSDQHGVVYITENKNKTVVIPCLGSISNLNVSLCARYPEKRFVPDGNRISWDSKKGFTIPSYMISYAGMVFCEAKINDESYQSIMYIVVVVGYRIYDVVLSPSHGIELSVGEKLVLNCTARTELNVGIDFNWEYPSSKHQHKKLVNRDLKTQSGSEMKKFLSTLTIDGVTRSDQGLYTCAASSGLMTKKNSTFVRVHEKPFVAFGSGMESLVEATVGERVRIPAKYLGYPPPEIKWYKNGIPLESNHTIKAGHVLTIMEVSERDTGNYTVILTNPISKEKQSHVVSLVVYVPPQIGEKSLISPVDSYQYGTTQTLTCTVYAIPPPHHIHWYWQLEEECANEPSQAVSVTNPYPCEEWRSVEDFQGGNKIEVNKNQFALIEGKNKTVSTLVIQAANVSALYKCEAVNKVGRGERVISFHVTRGPEITLQPDMQPTEQESVSLWCTADRSTFENLTWYKLGPQPLPIHVGELPTPVCKNLDTLWKLNATMFSNSTNDILIMELKNASLQDQGDYVCLAQDRKTKKRHCVVRQLTVLERVAPTITGNLENQTTSIGESIEVSCTASGNPPPQIMWFKDNETLVEDSGIVLKDGNRNLTIRRVRKEDEGLYTCQACSVLGCAKVEAFFIIEGAQEKTNLEGPSLAKFVAAW[Phe(4-NO2)]LKAAA
In the case of B6, the antibody titers [1] is reported as “increased significantly”.
